According to patent KR20230108156A (dated 2023):

Assays:
[1] = biological target: CD40L on CD40L 표면발현 CHO 세포 (CHO cells expressing CD40L on the surface, ATCC) (UniProt P29965); assay: cell-based or functional assay
[2] = biological target: 재조합 인간 CD40L 단백질 (recombinant human CD40L protein, Sino biological, Accession#: NP_000065.1, Cat: 10239-H08E) (human) (UniProt P29965); assay: cell-based or functional assay
[3] = biological target: CD40L on CD40L 표면발현 CHO 세포 (CHO cells expressing CD40L on the surface, ATCC) (UniProt P29965); assay: flow cytometry on CD40L CHO cells, 0.01-0.5 μg/test
[4] = biological target: T1, CD40 on CD40 표면발현 CHO 세포 (CHO cells expressing CD40 on the surface, ATCC) (UniProt P25942 21-277, limits assumed); assay: flow cytometry on CD40 CHO cells, goat anti-mouse Ig-FITC
T1 construct: whole, on cells; also called CD40 CHO 세포

[5] = biological target: T2, CD40L in lysates of Jurkat cells and HeLaS3 cells (32 ~ 39 kDa band) (human, UniProt P29965 1-261); assay: western blot of Jurkat and HeLaS3 lysates, reducing and non-reducing, 14D6 0.5 μg/ml
T2 construct: Denatured protein on a PVDF membrane
T2 sequence (looked up): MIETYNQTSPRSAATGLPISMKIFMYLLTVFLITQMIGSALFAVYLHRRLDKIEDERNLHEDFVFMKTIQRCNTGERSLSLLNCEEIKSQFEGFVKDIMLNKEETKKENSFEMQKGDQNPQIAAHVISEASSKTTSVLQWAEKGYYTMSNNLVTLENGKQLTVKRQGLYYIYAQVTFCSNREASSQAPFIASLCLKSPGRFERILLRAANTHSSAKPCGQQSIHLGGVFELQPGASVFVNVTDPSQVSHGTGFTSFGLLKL

[6] = biological target: T3, CD40L induced on T cells of human PBMC stimulated with PMA and ionomycin (human, UniProt P29965 1-261); assay: flow cytometry on PMA/ionomycin-stimulated human PBMC, 0.1 μg, CD3-APC gate, anti-mouse Ig-FITC
T3 construct: whole, on cells
T3 sequence (looked up): T2 sequence (looked up)

[7] = biological target: CD40L-hFc 단백질 (Sino biological, Accession#: NP_000065.1, Cat: 10239-H01H) (human) (UniProt P29965); assay: competition, flow cytometry: 14D6 pre-mixed with CD40L-hFc (2 μg), binding to CD40 on Bjab cells read
[8] = biological target: 재조합 인간 CD40L 단백질 (recombinant human CD40L protein, Sino biological, Accession#: NP_000065.1, Cat: 10239-H08E) (human) (UniProt P29965); assay: ELISA, plate coated with recombinant human CD40L 100 ng/well, 14D6 two-fold dilutions from 1000 ng/ml, anti-mouse IgG-HRP

T1 sequence (P25942 21-277 limits assumed): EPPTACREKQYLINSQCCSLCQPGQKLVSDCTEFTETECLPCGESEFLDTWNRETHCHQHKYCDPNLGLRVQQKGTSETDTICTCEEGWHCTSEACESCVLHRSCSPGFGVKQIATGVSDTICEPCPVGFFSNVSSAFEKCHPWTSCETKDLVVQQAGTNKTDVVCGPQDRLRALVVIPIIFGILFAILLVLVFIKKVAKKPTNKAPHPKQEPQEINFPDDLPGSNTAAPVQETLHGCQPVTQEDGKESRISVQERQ

B1: 14D6-52-5 단일클론항체 (14D6 단클론항체, mouse) (antibody, V domains shown)
VH: QVQLQQSGAELVKPGASVKLSCKASGYTFTRYYMFWVKQRPGQGLEWIGEINPTNGDTNFNEEFKSKATLTVDKSSSTAYMQLSSLTSEDSAVYYCTRPLGSRDAMDYWGPGTSVTVSS
VL: DIVLTQSPASLAVSLGQRATISCRASQSVSSSRYSYMHWYQQKPGQPPKLLIKYASSLESGVPARFSGSGSGTDFTLNIHPVEGEDTATYYCQHSWELPWTFGGGTKLEIK
notes: Mouse monoclonal antibody from a hybridoma (Balb/c mouse immunised with recombinant human CD40L); also called 14D6 마우스항체; Mouse 14D6
- ICAM-1 expression on Ramos B cells co-cultured with CD40L CHO cells (flow cytometry) [1]: > 0.5 μg/test
- antibody concentration for complete blocking of SEAP OD 655nm (HEK-Blue CD40L cells), CD40L 12.5ng/ml [2]: > 50 ng/mL
- antibody concentration for complete blocking of SEAP OD 655nm (HEK-Blue CD40L cells), CD40L printed as 12.5ng/ml a second time (25ng/ml probably meant) [2]: > 500 ng/mL
- amount at which binding is saturated [3]: > 0.1 µg
- binding result [4]: no binding (tested: 0.05μg/test)
- binding result [5]: binds
- binding result [6]: binds
- amount at which blocking equals the negative control [7]: > 0.1 µg
- concentration at which binding is saturated [7]: > 0.1 μg/50μl
- concentration at which binding is saturated [8]: > 100 ng/mL
